In patent US20230025360A1, “PROCESSES FOR GENERATING SUPERIOR ANTI-TUMOR T-CELL EFFECTOR AND MEMORY CELLS” (MUSC Foundation for Research Development, priority 2016, published 2023):

Assays:
Splenic T cells [1] = experiment: Splenic T cells activated with anti-CD3/28 in presence of α-KG; assay type: cell-based, C57BL/6 mouse; conditions: α-KG pretreatment for three days
Method: Splenic T cells from C57BL/6 mouse were activated with anti-CD3/28 (each 2 μg/ml) either in absence or presence of α-KG for three days, after which: (FIG. 10A) Glucose uptake was determined using 2NBDG, and (FIG. 10B) Tscm phenotype was evaluated using CD62L and CD44 cell surface expression. N=2.

NF-KB = NF-KB activity after addition of recombinant Trx; assay type: cell-based
Pmel T cells = Pmel T cells activated with cognate antigen in presence of rTrx; assay type: cell-based
Method: (FIG. 7A) Three day activated gp100 epitope reactive splenic T cells from Pmel and Pmel−Trx mouse were re-stimulated overnight with cognate antigen, and supernatant was evaluated for secreted Trx by ELISA as per protocol. N=3 **p<0.005. (FIG. 7B) Pmel T cells were labeled with CFSE and stimulated with cognate antigen gp100 for three days. The expression of Trx was then determined using flurochrome conjugated antibody by gating on the cells in different phase of division. (FIG. 7C) CFSE labeled Pmel T cells were stimulated with cognate antigen in absence or presence of rTRx at various doses. Pmel T cells activated with cognate antigen in presence of rTrx (5 μg/ml) were used at day 3 to determine the expression of Trx (FIG. 7D), iGSH (FIG. 7E), pAMPK (FIG. 7F), stemness genes using qPCR (FIG. 7G), Annexin V upregulation after 4 hr of TCR restimulation with cognate antigen hgp100 or non-cognate ova peptide (FIG. 7H), and Glucose uptake using 2NBDG (FIG. 7I). N=2-3. Numerical values=MFI. *p<0.05, **p<0.01. (FIG. 7J) Melanoma epitope gp100 reactive T cells obtained from Pmel TCR transgenic mouse were activated with cognate antigen either in presence or absence of recombinant thioredoxin (rTrx) for three days before being adoptively transferred to the immunocompetent C57BL/6 recipient mice with ten day subcutaneously established murine melanoma B16-F10. Tumor measurements from two different experiments where Pmel and Pmel+rTrx were transferred to 9 recipient mice was compiled for this presentation. ***p value<0.01 obtained at last time point of the tumor measurement before the experiment was terminated.
To get an insight into the mechanism that may be responsible for the ability of co-injected Pmel T cells to respond to tumor rechallenge (as in FIG. 6), it was determined if Pmel−Trx secreted Trx upon antigen restimulation. […] Further, to determine how secreted Trx would have modulated the Pmel T cells, recombinant Trx was used during antigen induced in vitro Pmel activation and compared the phenotype with untreated Pmel and Pmel−Trx T cells. […] It has also been shown recently that Trx1-mediated reduction of Cys130 and Cys174 is essential for AMPK function, and decreased Trx levels could lead to oxidation of Cys130 and Cys174 by inducing aggregation that prevents its activation and phosphorylation by AMPK kinases (Shao D et al., 2014, Cell Metab, 19(2):232-45).

murine melanoma B16-F10 = experiment: Adoptive transfer of T cells activated in presence of rTrx; assay type: in vivo, C57BL/6 mice; conditions: gp100 reactive effector T cells generated in presence of rTrx
Method: (FIG. 7A) Three day activated gp100 epitope reactive splenic T cells from Pmel and Pmel−Trx mouse were re-stimulated overnight with cognate antigen, and supernatant was evaluated for secreted Trx by ELISA as per protocol. N=3 **p<0.005. (FIG. 7B) Pmel T cells were labeled with CFSE and stimulated with cognate antigen gp100 for three days. The expression of Trx was then determined using flurochrome conjugated antibody by gating on the cells in different phase of division. (FIG. 7C) CFSE labeled Pmel T cells were stimulated with cognate antigen in absence or presence of rTRx at various doses. Pmel T cells activated with cognate antigen in presence of rTrx (5 μg/ml) were used at day 3 to determine the expression of Trx (FIG. 7D), iGSH (FIG. 7E), pAMPK (FIG. 7F), stemness genes using qPCR (FIG. 7G), Annexin V upregulation after 4 hr of TCR restimulation with cognate antigen hgp100 or non-cognate ova peptide (FIG. 7H), and Glucose uptake using 2NBDG (FIG. 7I). N=2-3. Numerical values=MFI. *p<0.05, **p<0.01. […]
Further, it was determined if the strategy to activate and expand in presence of rTrx ex vivo would render tumor epitope reactive T cells with robust anti-tumor property.

Splenic T cells [2] = experiment: Homeostatic proliferation of IL2 or IL2+IL4 activated T cells in Rag1−/− recipients; assay type: in vivo, C57BL/6 mice; conditions: IL2+IL4 vs IL2, tracked at day 28
Text: Splenic T cells from C57BL/6 mice on Thy1.1 or Thy1.2 background were activated for three days either in 1L2 or IL2+IL4 respectively, and mixed in 1:1 ratio before injecting i.v. in Rag1−/− recipients to determine any differences in homeostatic proliferation. Transferred T cells were tracked at day 28 by staining Thy1.1 and Th1.2 cells in various lymphoid and non-lymphoid tissues.

[3] = TCR re-stimulation with cognate antigen (hgp100), cultured three days with recombinant Trx

## O=C(O)CCC(=O)C(=O)O [α-ketoglutarate]
Splenic T cells [1]
  T cell phenotype (CD62L and CD44 cell surface expression): renders Tscm phenotype

B1: rTrx: recombinant thioredoxin added during ex vivo T cell activation (protein, UniProt P10599 2-105, looked up)
Thioredoxin: VKQIESKTAFQEALDAAGDKLVVVDFSATWCGPCKMIKPFFHSLSEKYSNVIFLEVDVDDCQDVASECEVKCMPTFQFFKKGQKVGEFSGANKEKLEATINELV
NF-KB
  NF-KB activity: decrease
Pmel T cells; CFSE labeled Pmel T cells, rTrx at various doses
  toxicity / cell division during T cell activation: non-toxic
Pmel T cells; [3]
  cell death as measured by Annexin V levels: reduced cell death
  glucose uptake (2NBDG): reduced
Pmel T cells; compared to activated Pmel T cells
  pAMPK: increased pAMPK
Pmel T cells; rTrx 5 μg/ml, day 3
  Lef1 gene expression (qPCR, stemness genes): up-regulation
  Tcf7 gene expression (qPCR, stemness genes): up-regulation
  expression of Trx: increased expression
  expression of iGSH: increased expression
Murine melanoma B16-F10
  survival of transferred T cells in vivo: survive longer
  tumor control: much improved tumor control

B2: IL4: cytokine used with IL2 to pretreat T cells for three days (protein, UniProt P05112 25-153, looked up)
Interleukin-4: HKCDITLQEIIKTLNSLTEQKTLCTELTVTDIFAASKNTTEKETFCRAATVLRQFYSHHEKDTRCLGATAQQFHRHKQLIRFLKRLDRNLWGLAGLNSCPVKEANQSTLENFLERLKTIMREKYSKCSS
Splenic T cells [2]
  persistence of pretreated T cells in vivo: improved persistence
